In the supplement of paper PMC9112550, “Optimization of the antimicrobial peptide Bac7 by deep mutational scanning” (BMC Biology, 2022):

Test system: Escherichia coli TOP10
Test: shrunken log2 fold change of peptide-encoding DNA abundance (4.5 h post-induction vs induction); higher = less antimicrobial activity (less host growth inhibition)
Details: time post-induction: 4.5 h; library: site-saturation at positions 5, 18, 19, 20
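Also: peptides expressed intracellularly from a pBAD plasmid library in pooled LB shake-flask culture, induced with 0.3% L-arabinose, DNA abundance read by NGS, three biological replicates, DESeq2 with apeglm shrinkage.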

Sequence | shrunken log2 fold change
RRIRHRPPRLPRPRPRPWSMPRP | -0.293
RRIRFRPPRLPRPRPRPTKEPRP | -0.0335
RRIRQRPPRLPRPRPRPFEFPRP | -0.109
RRIRHRPPRLPRPRPRPVFEPRP | -0.153
RRIRCRPPRLPRPRPRPKVIPRP | -0.297
RRIRTRPPRLPRPRPRPGYLPRP | 0.0359
RRIRNRPPRLPRPRPRPSATPRP | -0.0839
RRIRSRPPRLPRPRPRPGTAPRP | 0.33
RRIRSRPPRLPRPRPRPSTHPRP | -0.353
RRIRIRPPRLPRPRPRPKSQPRP | -0.0352
RRIRLRPPRLPRPRPRPQQIPRP | -0.878
RRIRNRPPRLPRPRPRPCTTPRP | -0.213
RRIRGRPPRLPRPRPRPKFFPRP | 0.36
RRIRWRPPRLPRPRPRPTVDPRP | 0.296
RRIRVRPPRLPRPRPRPTQHPRP | 0.155
RRIRYRPPRLPRPRPRPGHIPRP | 0.0162
RRIRFRPPRLPRPRPRPTYFPRP | -0.175
RRIRNRPPRLPRPRPRPMIQPRP | -0.715
RRIRRRPPRLPRPRPRPTWDPRP | 0.19
RRIRYRPPRLPRPRPRPDWLPRP | -0.0748
RRIRHRPPRLPRPRPRPIRAPRP | 0.0218
RRIRWRPPRLPRPRPRPFIGPRP | -0.38
RRIRMRPPRLPRPRPRPNSSPRP | -0.1
RRIRYRPPRLPRPRPRPFCVPRP | -0.264
RRIRGRPPRLPRPRPRPLQLPRP | 0.447

Sequence | shrunken log2 fold change
RRIRRRPPRLPRPRPRPIYCPRP | -0.0446
RRIRLRPPRLPRPRPRPNPNPRP | 0.395
RRIRRRPPRLPRPRPRPSKKPRP | 0.144
RRIRTRPPRLPRPRPRPRDIPRP | -0.0222
RRIRFRPPRLPRPRPRPFDNPRP | -0.31
RRIRTRPPRLPRPRPRPKEYPRP | -1.07
RRIRLRPPRLPRPRPRPNIPPRP | -0.823
RRIRCRPPRLPRPRPRPQFSPRP | -0.145
RRIRERPPRLPRPRPRPKTCPRP | -0.267
RRIRGRPPRLPRPRPRPSLIPRP | 0.211
RRIRPRPPRLPRPRPRPFYTPRP | -0.429
RRIRMRPPRLPRPRPRPRNFPRP | 1.12
RRIRQRPPRLPRPRPRPVCNPRP | -0.0714
RRIRLRPPRLPRPRPRPHCMPRP | -0.283
RRIRQRPPRLPRPRPRPDNPPRP | -0.0388
RRIRIRPPRLPRPRPRPCSFPRP | -0.45
RRIRDRPPRLPRPRPRPSFHPRP | -0.429
RRIRPRPPRLPRPRPRPLVLPRP | 0.0114
RRIRQRPPRLPRPRPRPSWLPRP | -0.213
RRIRVRPPRLPRPRPRPRWQPRP | 0.0341
RRIRGRPPRLPRPRPRPGILPRP | 0.335
RRIRQRPPRLPRPRPRPATTPRP | 0.351
RRIRRRPPRLPRPRPRPGTEPRP | 0.443
RRIRTRPPRLPRPRPRPREIPRP | 0.00997
RRIRWRPPRLPRPRPRPRLQPRP | 0.642

Sequence | shrunken log2 fold change
RRIRKRPPRLPRPRPRPLTVPRP | 0.344
RRIRIRPPRLPRPRPRPPCCPRP | -0.31
RRIRKRPPRLPRPRPRPQGMPRP | -0.027
RRIRNRPPRLPRPRPRPSFYPRP | -0.658
RRIRLRPPRLPRPRPRPPITPRP | -0.213
RRIRNRPPRLPRPRPRPTFTPRP | -0.245
RRIRRRPPRLPRPRPRPEKQPRP | 0.147
RRIRFRPPRLPRPRPRPAHGPRP | 0.418
RRIRTRPPRLPRPRPRPPGKPRP | 0.129
RRIRVRPPRLPRPRPRPKDDPRP | 0.0252
RRIRFRPPRLPRPRPRPKTGPRP | 0.072
RRIRTRPPRLPRPRPRPMEIPRP | -0.00196
RRIRHRPPRLPRPRPRPDRTPRP | 0.0869
RRIRLRPPRLPRPRPRPPSIPRP | -0.0597
RRIRKRPPRLPRPRPRPQEKPRP | -0.0233
RRIRRRPPRLPRPRPRPNWKPRP | -0.0144
RRIRRRPPRLPRPRPRPWFMPRP | -0.125
RRIRERPPRLPRPRPRPHRIPRP | -0.229
RRIRHRPPRLPRPRPRPAPFPRP | -0.257
RRIRQRPPRLPRPRPRPWWCPRP | -0.105
RRIRYRPPRLPRPRPRPDKLPRP | -0.0621
RRIRKRPPRLPRPRPRPIEKPRP | 0.694
RRIRFRPPRLPRPRPRPGEQPRP | -0.0185
RRIRTRPPRLPRPRPRPYHQPRP | -0.182
RRIRKRPPRLPRPRPRPINWPRP | 0.0577
